Like-named read-outs stand apart in the source and are kept apart here.
T1: cyno CD3E&G-His/Free (cynomolgus monkey, UniProt Q95LI5 22-117; Q95LI7 23-113)
T1 construct: Bought recombinant heterodimer; also called monkey CD3 E&G
T1 sequence (looked up) 1: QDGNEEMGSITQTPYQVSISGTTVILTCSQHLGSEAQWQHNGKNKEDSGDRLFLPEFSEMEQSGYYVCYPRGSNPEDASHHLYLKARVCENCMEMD
T1 sequence (looked up) 2: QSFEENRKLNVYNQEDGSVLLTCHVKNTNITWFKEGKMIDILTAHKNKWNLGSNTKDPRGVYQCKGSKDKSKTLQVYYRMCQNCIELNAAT

T2: human BCMA (full-length, on cells) (human, UniProt Q02223 1-184)
T2 sequence: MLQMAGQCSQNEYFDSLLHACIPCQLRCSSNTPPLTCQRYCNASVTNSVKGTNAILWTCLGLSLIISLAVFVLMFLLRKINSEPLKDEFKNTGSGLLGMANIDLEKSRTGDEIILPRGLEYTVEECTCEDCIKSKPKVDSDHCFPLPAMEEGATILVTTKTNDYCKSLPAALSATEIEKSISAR


Legend:
Cyno BCMA-His = target: T3, Cyno BCMA-His (cynomolgus monkey, UniProt A0A2K5UD97 1-53); test: BLI (Octet), 1:1 fit
T3 construct: also called Cyno BCMA (ACRO BCA-C52H7); monkey BCMA

cyno CD3E&G-His/Free = target: T1, cyno CD3E&G-His/Free; test: BLI (Octet), 1:1 fit
human CD3E&G-His/Free = target: T4, human CD3E&G-His/Free (human, UniProt P07766 23-126; P09693 23-116); test: BLI (Octet), 1:1 fit
T4 construct: Bought recombinant heterodimer; 'His/Free' as printed (one chain His-tagged); also called human CD3 E&G heterodimer

[1] = target: T2, human BCMA (full-length, on cells); test: cell-based or functional assay
[2] = target: T2, human BCMA (full-length, on cells); test: cell-based or functional assay; remark: listed apart in the source
[3] = target: T2, human BCMA (full-length, on cells); test: flow cytometry, GS-CHO-hBCMA cells
[4] = target: T5, cynomolgus monkey BCMA (full-length, on cells) (cynomolgus monkey, UniProt A0A2K5UD97 1-183); test: flow cytometry, GS-CHO-cynoBCMA cells
T5 construct: whole, on cells; also called cynoBCMA; GS-CHO-cynoBCMA

[5] = target: T6, human CD3 (on Jurkat cells and human T cells) (human, UniProt P07766 23-207); test: flow cytometry, human CD8 T cells
T6 construct: whole, on cells; the other chains of the complex on the cells are not described; also called CD3E

[6] = target: T6, human CD3 (on Jurkat cells and human T …); test: flow cytometry, human CD4 T cells
[7] = target: T2, human BCMA (full-length, on cells); test: flow cytometry, GS-CHO-hBCMA cells; remark: listed apart in the source
[8] = target: T2, human BCMA (full-length, on cells); test: cell-based or functional assay; remark: listed apart in the source
[9] = target: T6, human CD3 (on Jurkat cells and human T …); test: flow cytometry, Jurkat cells
[10] = target: human GPRC5D (full-length, on cells) (human, UniProt Q9NZD1 1-345); test: cell-based or functional assay
human GPRC5D (full-length, on cells), sequence (Q9NZD1 whole entry): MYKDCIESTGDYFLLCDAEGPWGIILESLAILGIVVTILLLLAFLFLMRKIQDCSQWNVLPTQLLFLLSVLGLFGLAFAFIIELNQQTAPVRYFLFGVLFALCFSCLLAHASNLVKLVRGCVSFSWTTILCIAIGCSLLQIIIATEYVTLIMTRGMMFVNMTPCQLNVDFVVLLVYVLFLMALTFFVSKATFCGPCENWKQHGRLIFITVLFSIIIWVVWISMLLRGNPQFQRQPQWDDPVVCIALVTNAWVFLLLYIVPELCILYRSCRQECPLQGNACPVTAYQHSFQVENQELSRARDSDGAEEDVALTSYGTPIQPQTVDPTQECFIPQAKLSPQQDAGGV

T5 sequence (A0A2K5UD97 entry or part of it): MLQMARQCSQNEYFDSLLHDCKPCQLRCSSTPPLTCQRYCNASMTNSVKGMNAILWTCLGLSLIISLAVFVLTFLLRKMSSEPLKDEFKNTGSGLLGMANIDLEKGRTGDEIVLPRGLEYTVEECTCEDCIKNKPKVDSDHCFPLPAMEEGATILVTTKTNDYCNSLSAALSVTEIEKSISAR
T6 sequence (P07766 23-207): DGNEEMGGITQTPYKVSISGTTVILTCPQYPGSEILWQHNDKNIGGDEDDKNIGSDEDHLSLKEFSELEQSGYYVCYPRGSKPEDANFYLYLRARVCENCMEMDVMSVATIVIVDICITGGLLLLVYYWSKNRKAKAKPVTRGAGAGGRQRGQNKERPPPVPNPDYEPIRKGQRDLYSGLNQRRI
T3 sequence (A0A2K5UD97 entry or part of it): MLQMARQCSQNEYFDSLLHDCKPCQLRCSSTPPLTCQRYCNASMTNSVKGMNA
T4 sequence (P07766 23-126, chain 1 of 2): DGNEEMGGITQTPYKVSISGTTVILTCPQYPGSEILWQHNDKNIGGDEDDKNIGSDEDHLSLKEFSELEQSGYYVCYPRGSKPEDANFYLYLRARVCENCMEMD
T4 sequence (P09693 23-116, chain 2 of 2): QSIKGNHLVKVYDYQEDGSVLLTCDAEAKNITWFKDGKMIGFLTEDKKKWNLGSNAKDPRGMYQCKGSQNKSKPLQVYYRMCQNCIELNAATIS

Binder | Kd (Cyno BCMA-His) [nM] | koff (Cyno BCMA-His) [s⁻¹] | kon (Cyno BCMA-His) [M⁻¹ s⁻¹] | Kd (cyno CD3E&G-His/Free) [nM] | koff (cyno CD3E&G-His/Free) [s⁻¹] | kon (cyno CD3E&G-His/Free) [M⁻¹ s⁻¹] | Kd (human CD3E&G-His/Free) [nM] | koff (human CD3E&G-His/Free) [s⁻¹] | kon (human CD3E&G-His/Free) [M⁻¹ s⁻¹] | EC50 of PBMC killing of H929 ko GPRC5D cells, donor1 [1] [pM] | EC50 of PBMC killing of H929 ko GPRC5D cells (LDH) [2] [pM] | EC50 [3] [nM] | EC50 [4] [nM] | EC50 [5] [nM] | EC50 [6] [nM] | EC50 of PBMC killing of H929 ko GPRC5D cells (LDH) [8] [pM] | EC50 [9] [nM] | also measured
B3-7F5.3 (87) (7F5.3_sp34.87_497_triFab) (trispecific antibody, human IgG1, kappa, lambda, L234A L235A, also called Exemplary antibody No. 5) heavy 1: not shown light 1: not shown heavy 2: not shown light 2: DIQMTQSPSSLSASVGDRVTITCRASQSISRYLNWYQDKPGKAPKLLIYAASSLQSGVPSRFSGSGSGTDFTLTISSLQPEDFATYYCQQKYFDITFGGGTKVEIKRTVAAPSVFIFPPSDECLKSGTASVVCLLNNFYPREAKVQWKVDNALQSGNSQESVTEQDSKDSTYSLSSTLTLSKADYEKHKVYACEVTHQGLSSPVTKSFNRGES light 3: QAVVTQEPSLTVSPGGTVTLTCRSSTGAVTTSNYANWVQKKPGQAPRGLIGGTNKRAPGVPARFSGSLLGDKAALTLLGAQPEDEAEYYCALWYSNLWVFGQGTKLTVLGQPKAAPSVTLFPPSSEELQANKATLVCLISDFYPGAVTVAWKADSSPVKAGVETTTPSKQSNNKYAASSYLSLTPEQWKSHRSYSCQVTHEGSTVEKTVAPTECS | 0.244 | 0.0002 | 821000 | 58.6 | 0.012 | 205000 | 64.1 | 0.0152 | 236000 | 167 |  |  |  |  |  |  |  | 
B3-7F5.3 (24) (7F5.3_sp34.24_497_triFab) (trispecific antibody, human IgG1, kappa, lambda, L234A L235A, also called Exemplary antibody No. 6) heavy 1: not shown light 1: not shown heavy 2: not shown light 2: DIQMTQSPSSLSASVGDRVTITCRASQSISRYLNWYQDKPGKAPKLLIYAASSLQSGVPSRFSGSGSGTDFTLTISSLQPEDFATYYCQQKYFDITFGGGTKVEIKRTVAAPSVFIFPPSDECLKSGTASVVCLLNNFYPREAKVQWKVDNALQSGNSQESVTEQDSKDSTYSLSSTLTLSKADYEKHKVYACEVTHQGLSSPVTKSFNRGES light 3: QAVVTQEPSLTVSPGGTVTLTCRSSTGAVTTSNYANWVQKKPGQAPRGLIGGTNKRAPGVPARFSGSLLGDKAALTLLGAQPEDEAEYYCALWYSNLWVFGQGTKLTVLGQPKAAPSVTLFPPSSEELQANKATLVCLISDFYPGAVTVAWKADSSPVKAGVETTTPSKQSNNKYAASSYLSLTPEQWKSHRSYSCQVTHEGSTVEKTVAPTECS |  |  |  | 10.2 | 0.00675 | 662000 | 14.4 | 0.00874 | 608000 |  | 75.1 | 7.36 | 9.69 | 42.4 | 43.4 |  |  | 
Roche-BCMA/CD3 (Alnuctamab) (bispecific antibody, human IgG1, kappa, L234A L235A, also called Roche-BCMAxCD3) EVQLLESGGGLVQPGGSLRLSCAASGFTFSTYAMNWVRQAPGKGLEWVSRIRSKYNNYATYYADSVKGRFTISRDDSKNTLYLQMNSLRAEDTAVYYCVRHGNFGNSYVSWFAYWGQGTLVTVSSASVAAPSVFIFPPSDEQLKSGTASVVCLLNNFYPREAKVQWKVDNALQSGNSQESVTEQDSKDSTYSLSSTLTLSKADYEKHKVYACEVTHQGLSSPVTKSFNRGEC heavy 1: not shown light: EIVLTQSPGTLSLSPGERATLSCRASQSVSDEYLSWYQQKPGQAPRLLIHSASTRATGIPDRFSGSGSGTDFTLAISRLEPEDFAVYYCQQYGYPPDFTFGQGTKVEIKRTVAAPSVFIFPPSDRKLKSGTASVVCLLNNFYPREAKVQWKVDNALQSGNSQESVTEQDSKDSTYSLSSTLTLSKADYEKHKVYACEVTHQGLSSPVTKSFNRGEC heavy 2: EVQLLESGGGLVQPGGSLRLSCAASGFTFSDNAMGWVRQAPGKGLEWVSAISGPGSSTYYADSVKGRFTISRDNSKNTLYLQMNSLRAEDTAVYYCAKVLGWFDYWGQGTLVTVSSASTKGPSVFPLAPSSKSTSGGTAALGCLVEDYFPEPVTVSWNSGALTSGVHTFPAVLQSSGLYSLSSVVTVPSSSLGTQTYICNVNHKPSNTKVDEKVEPKSCDKTHTCPPCPAPEAAGGPSVFLFPPKPKDTLMISRTPEVTCVVVDVSHEDPEVKFNWYVDGVEVHNAKTKPREEQYNSTYRVVSVLTVLHQDWLNGKEYKCKVSNKALGAPIEKTISKAKGQPREPQVCTLPPSRDELTKNQVSLSCAVKGFYPSDIAVEWESNGQPENNYKTTPPVLDSDGSFFLVSKLTVDKSRWQQGNVFSCSVMHEALHNHYTQKSLSLSPGK | 0.89 | 0.00125 | 1.4e+06 |  |  |  | 13 | 0.00469 | 361000 | 4.5 | 16.1 | 3.08 | 3.81 |  |  |  |  | 
REGN-BCMA/CD3 (REGN5458) (bispecific antibody) VH: EVQLVESGGGLVQPGGSLRLSCAASGFTFSNFWMTWVRQAPGKGLEWVANMNQDGSEKYYVDSVKGRFTISRDNAKSSLYLQMNSLRAEDTAVYYCARDREYCISTSCYDDFDYWGQGTLVTVSS VL: not shown EVQLVESGGGLVQPGRSLRLSCAASGFTFDDYSMHWVRQAPGKGLEWVSGISWNSGSKGYADSVKGRFTISRDNAKNSLYLQMNSLRAEDTALYYCAKYGSGYGKFYHYGLDVWGQGTTVTVSS | 14 | 0.0108 | 767000 |  |  |  |  |  |  | 39.5 |  | 59.2 | 1320 | 31.9 | 33.4 | 37.5 | 12 | binding result (cyno CD3E&G-His/Free): no binding (tested: 100 nM); binding result (human CD3E&G-His/Free): no binding (tested: 100 nM); EC50 [7]: 76.1 nM
B5 (87) (hz5E12_sp34.87_497_triFab) (trispecific antibody, human IgG1, kappa, lambda, L234A L235A, also called Exemplary antibody No. 3) heavy 1: not shown light 1: DIVMTQSPDSLAVSLGERATINCRASESVDSYGITFMNWYQQKPGQPPKLLIYAASNQGSGVPDRFSGSGSGTDFTLTISSLQAEDVAVYYCQQSKEVPWTFGQGTKLEIKRTVAAPSVFIFPPSDEQLKSGTASVVCLLNNFYPREAKVQWKVDNALQSGNSQESVTEQDSKDSTYSLSSTLTLSKADYEKHKVYACEVTHQGLSSPVTKSFNRGEC heavy 2: not shown light 2: QAVVTQEPSLTVSPGGTVTLTCRSSTGAVTTSNYANWVQKKPGQAPRGLIGGTNKRAPGVPARFSGSLLGDKAALTLLGAQPEDEAEYYCALWYSNLWVFGQGTKLTVLGQPKAAPSVTLFPPSSEELQANKATLVCLISDFYPGAVTVAWKADSSPVKAGVETTTPSKQSNNKYAASSYLSLTPEQWKSHRSYSCQVTHEGSTVEKTVAPTECS light 3: DIQMTQSPSSLSASVGDRVTITCRASQSISRYLNWYQDKPGKAPKLLIYAASSLQSGVPSRFSGSGSGTDFTLTISSLQPEDFATYYCQQKYFDITFGGGTKVEIKRTVAAPSVFIFPPSDECLKSGTASVVCLLNNFYPREAKVQWKVDNALQSGNSQESVTEQDSKDSTYSLSSTLTLSKADYEKHKVYACEVTHQGLSSPVTKSFNRGES |  |  |  |  |  |  |  |  |  |  |  |  |  |  |  | 182 |  | EC50 of PBMC killing of H929 ko BCMA cells (LDH) [10]: 10.5 pM; binding result [7]: no binding
JNJ-BCMA/CD3 (Teclistamab) (bispecific antibody, human IgG4 S228P, lambda, F234A L235A, also called J&J BCMAxCD3) heavy 1: not shown light 1: SYVLTQPPSVSVAPGQTARITCGGNNIGSKSVHWYQQPPGQAPVVVVYDDSDRPSGIPERFSGSNSGNTATLTISRVEAGDEAVYYCQVWDSSSDHVVFGGGTKLTVLGQPKAAPSVTLFPPSSEELQANKATLVCLISDFYPGAVTVAWKGDSSPVKAGVETTTPSKQSNNKYAASSYLSLTPEQWKSHRSYSCQVTHEGSTVEKTVAPTECS heavy 2: EVQLVESGGGLVQPGGSLRLSCAASGFTFNTYAMNWVRQAPGKGLEWVARIRSKYNNYATYYAASVKGRFTISRDDSKNSLYLQMNSLKTEDTAVYYCARHGNFGNSYVSWFAYWGQGTLVTVSSASTKGPSVFPLAPCSRSTSESTAALGCLVKDYFPEPVTVSWNSGALTSGVHTFPAVLQSSGLYSLSSVVTVPSSSLGTKTYTCNVDHKPSNTKVDKRVESKYGPPCPPCPAPEAAGGPSVFLFPPKPKDTLMISRTPEVTCVVVDVSQEDPEVQFNWYVDGVEVHNAKTKPREEQFNSTYRVVSVLTVLHQDWLNGKEYKCKVSNKGLPSSIEKTISKAKGQPREPQVYTLPPSQEEMTKNQVSLTCLVKGFYPSDIAVEWESNGQPENNYKTTPPVLDSDGSFLLYSKLTVDKSRWQEGNVFSCSVMHEALHNHYTQKSLSLSLGK light 2: QTVVTQEPSLTVSPGGTVTLTCRSSTGAVTTSNYANWVQQKPGQAPRGLIGGTNKRAPGTPARFSGSLLGGKAALTLSGVQPEDEAEYYCALWYSNLWVFGGGTKLTVLGQPKAAPSVTLFPPSSEELQANKATLVCLISDFYPGAVTVAWKADSSPVKAGVETTTPSKQSNNKYAASSYLSLTPEQWKSHRSYSCQVTHEGSTVEKTVAPTECS | 17.5 | 0.0338 | 1.94e+06 | 12.1 | 0.00481 | 396000 | 15.4 | 0.0057 | 370000 |  |  |  | 829 | 24.6 | 25.9 |  | 6.39 | 

Source: patent publication EP4725970A1 (Fortvita Biologics Inc., dated 2026)
